Measured values reported in patent US7666414B2, “Methods for treating prostate cancer using modified antibodies to prostate-specific membrane antigen” (Cornell Research Foundation, Inc., dated 2010).
Where a chain is given by its changes, count along the chain named. Values belong to the binder of their own block, whether it stands above or below them.

Target: prostate specific membrane antigen (PSMA) on LNCaP cells (human, UniProt Q04609)
Experiment: ELISA on plates coated with LNCaP membrane preparation, purified antibody

fold change against the chimeric antibody: 2 fold less
B1: deimmunized J415, heavy chain version 1 with light chain version 5 (antibody, V domains shown)
VH: EVKLEESGGGLVQPGGSMKISCKASGFTFSNYWMNWVRQTPEKGLEWVALIRSQSNNFATHYAESVKGRVIISRDDSKSSVYLQMNSLRAEDTAVYYCTRRWNNFWGQGTTVTVSS
VL: NIVMTQFPKSMSASAGERMTLTCKASENVGTYVSWYQQKPTQSPKMLIYGASNRFTGVPDRFSGSGSGTDFILTISSVQAEDLVDYYCGQSYTFPYTFGGGTKLEMK

fold change against the chimeric antibody: 2 fold less
B2: deimmunized J415, heavy chain version 2 with light chain version 5 (antibody, V domains shown)
VH: B1 VH with K23V
VL: B1 VL
